# From patent US7998940B2, “Aptamers to von Willebrand factor and their use as thrombotic disease therapeutics” (Archemix Corp., priority 2004, dated 2011)
# Numbering of substitutions follows the chain as printed. Oligonucleotides are written 5' to 3', each unit as a sugar letter and its base; * is a phosphorothioate linkage, no mark a phosphodiester; rarer units and linkages stand in square brackets, end groups in braces. Plain capitals give the bases only. r = 2'-OH (RNA); f = 2'-fluoro
# B1: AMX200.C11: DNA SELEX 1 aptamer clone (nucleic acid)
# DNA: CTACCTACGATCTGACTAGCGGAATGAGAGTGCTGATGGATTGCTCAGGTCTGCTGGCTGCTTACTCTCATGTAGTTCC
# modifications: DNA, backbone not given here
# notes: DNA SELEX 1 aptamer clone
# B2: AMX199.D11: DNA SELEX 1 aptamer clone (nucleic acid)
# DNA: B1 DNA with G30A, A36G
# modifications: DNA, backbone not given here
# notes: DNA SELEX 1 aptamer clone
# B3: AMX199.C2: DNA SELEX 1 aptamer clone (nucleic acid)
# DNA: B1 DNA with G30A, A36G, T45C
# modifications: DNA, backbone not given here
# notes: DNA SELEX 1 aptamer clone
# B4: AMX200.D3: DNA SELEX 1 aptamer clone (nucleic acid)
# DNA: B1 DNA with G22C, A29G, G30A
# modifications: DNA, backbone not given here
# notes: DNA SELEX 1 aptamer clone
# B5: AMX200.F11: DNA SELEX 1 aptamer clone (nucleic acid)
# DNA: B1 DNA with A29G, G30A, A36G
# modifications: DNA, backbone not given here
# notes: DNA SELEX 1 aptamer clone
# B6: AMX199.B3: DNA SELEX 1 aptamer clone (nucleic acid)
# DNA: B1 DNA with G30A
# modifications: DNA, backbone not given here
# notes: DNA SELEX 1 aptamer clone
# B7: AMX199.C4: DNA SELEX 1 aptamer clone (nucleic acid)
# DNA: B1 DNA with A29G, G30A, T45A
# modifications: DNA, backbone not given here
# notes: DNA SELEX 1 aptamer clone
# B8: AMX199.F7: DNA SELEX 1 aptamer clone (nucleic acid)
# DNA: B1 DNA with A36G
# modifications: DNA, backbone not given here
# notes: DNA SELEX 1 aptamer clone
# B9: AMX199.B7: DNA SELEX 1 aptamer clone (nucleic acid)
# DNA: B1 DNA with A23G, A36G
# modifications: DNA, backbone not given here
# notes: DNA SELEX 1 aptamer clone
# B10: AMX199.G10: DNA SELEX 1 aptamer clone (nucleic acid)
# DNA: B1 DNA with G30A, C33T, A36G
# modifications: DNA, backbone not given here
# notes: DNA SELEX 1 aptamer clone
# B11: AMX198.C10: rRfY aptamer clone (nucleic acid)
# chain: rGrGrArGfCrGfCrAfCfUfCrArGfCfCrAfCfUrGrGfUfCfCfUfUrArGfCfUrArGfUfUrGfUrAfCfUrArGfCrGrAfCrGfCrGfUfUfCrArGrGfUrGrGfUfUfUfCrGrAfCfCfUfCfUfCfUrGfCfUrArGfC
# B12: AMX198.A10: rRfY aptamer clone (nucleic acid)
# chain: rGrGrArGfCrGfCrAfCfUfCrArGfCfCrAfCfCrArGfUfUrAfUrGfCfUrGrGfCfUfUfUrGrGfUfCfUfUfUrGrAfCfUrGfUfCfUrGrArGfUrGfUfUfCrGfUfUfUfCrGrAfCfCfUfCfUfCfUrGfCfUrArGfC
# B13: AMX198.E11: rRfY aptamer clone (nucleic acid)
# chain: rGrGrArGfCrGfCrAfCfUfCrArGfCfCrAfCrGrGfUrArAfCrAfUfUrGfUfUfUfCfCrGrGfCrGrAfUfUfCfUfUfUrGrArAfCrGfCfCrGfUfCrGfUrGrGfUfUfUfCrGrAfCfCfUfCfUfCfUrGfCfUrArGfC
# B14: AMX198.E5: rRfY aptamer clone (nucleic acid)
# chain: rGrGrArGfCrGfCrAfCfUfCrArGfCfCrAfCfUfUfCrGrAfCfUfUfUfCrAfUrGfUfCfUrGrArArGfUfCfCfCfUrGfCrArGfUrGfCrGrArGrArGrAfCrGfUfUfUfCrGrAfCfCfUfCfUfCfUrGfCfUrArGfC
# B15: AMX198.C6: rRfY aptamer clone (nucleic acid)
# chain: rGrGrArGfCrGfCrAfCfUfCrArGfCfCrAfCrGrGfUrGrGfUfCrArGfUfCrArGfUrGrAfUrAfUrGrAfUfUrArArGfUfUfCrArGfCfUrGfUrGrGfCfUrGfUfUfUfCrGrAfCfCfUfCfUfCfUrGfCfUrArGfC
# B16: AMX201.H1: rRfY aptamer clone (nucleic acid)
# chain: rGrGrArGfCrGfCrAfCfUfCrArGfCfCrAfCfUfUfUrAfCrGrGfUrGrArArArGfUfCfUfCfUfCrGrGrGrGfUfUfCfCrGrArGfUfUrAfCrGrGfUrGfCrGfUfUfUfCrGrAfCfCfUfCfUfCfUrGfCfUrArGfC
# B17: AMX201.G9: rRfY aptamer clone (nucleic acid)
# chain: rGrGrArGfCrGfCrAfCfUfCrArGfCfCrAfCfUrArAfCrGrGfCfUrGrAfUfCfUfCrArGrGrAfCfUrArArAfUrArGfUfCrArAfCrArArGrGrAfUrGfCrGfUfUfUfCrGrAfCfCfUfCfUfCfUrGfCfUrArGfC
# B18: AMX236.B8: DNA SELEX 2 aptamer clone (nucleic acid)
# chain: CTACCTACGATCTGACTAGCTTGGTAGCGACTCTGTGGAGCTGCGGTCTGGTCGACGTCAGCTTACTCTCATGTAGTTCC
# modifications: DNA, backbone not given here
# notes: DNA SELEX 2 aptamer clone
# B19: AMX237.E10: DNA SELEX 2 aptamer clone (nucleic acid)
# DNA: B1 DNA with G30A, A36G
# modifications: DNA, backbone and methylation of C not given here
# notes: DNA SELEX 2 aptamer clone
# Target: T1, human vWF A1 domain (SEQ ID NO 5) (Homo sapiens, UniProt P04275, T1381A)
# Assay: 3-point dot blot screen, human vWF A1 domain
# Type: binding
# Conditions: DNA SELEX 1 aptamers; 100 nM human vWF A1 domain; ratio of fraction bound with target to without
# How it was run: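 Values are ratios of aptamer fraction retained on nitrocellulose with 100 nM vWF A1 domain (human or rabbit) versus a no-protein control. Unique clones from rounds 9 and 12 pools were transcribed, desalted and 5'-32P labeled before this three-point dot blot screen.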
# T1 sequence (P04275 with tags, fused parts or gaps T1381A): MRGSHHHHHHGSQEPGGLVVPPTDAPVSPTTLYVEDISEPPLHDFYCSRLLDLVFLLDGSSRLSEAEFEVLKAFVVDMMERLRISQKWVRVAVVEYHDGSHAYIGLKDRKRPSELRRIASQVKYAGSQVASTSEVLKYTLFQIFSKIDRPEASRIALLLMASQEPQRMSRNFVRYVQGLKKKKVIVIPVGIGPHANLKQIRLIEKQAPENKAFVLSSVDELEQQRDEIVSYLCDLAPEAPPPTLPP
row,Molecule,Screen- Human/No Protein
1,B1,6.00
2,B2,4.19
3,B3,5.09
4,B4,2.68
5,B5,3.83
6,B6,1.76
7,B7,3.60
8,B8,5.47
9,B9,4.08
10,B10,4.97

# Same assay, conditions: rRfY aptamers; 100 nM human vWF A1 domain; ratio of fraction bound with target to fraction bound without target
row,Molecule,Screen- Human/No Protein
1,B11,1.40
2,B12,1.26
3,B13,1.03
4,B14,1.60
5,B15,3.03
6,B16,2.61
7,B17,2.06

# Test system: rabbit vWF A1 domain (SEQ ID NO 6)
# Assay: 3-point dot blot screen, rabbit vWF A1 domain
# Type: binding
# Conditions: 3-point dot blot screen, 20 nM rabbit vWF A1 domain; ratio of fraction of aptamer bound with target protein to fraction bound without protein
# How it was run: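 Rabbit vWF A1 domain binding was screened by dot blot using three conditions: no target protein, human vWF, and rabbit vWF A1 domain at 100 nM (20 nM in the screen run twice). Radiolabeled aptamer bound to nitrocellulose was quantified, and results are expressed as the ratio of bound fraction with protein to bound fraction without protein.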
# Sequence of rabbit vWF A1 domain (SEQ ID NO 6) (as listed by the source): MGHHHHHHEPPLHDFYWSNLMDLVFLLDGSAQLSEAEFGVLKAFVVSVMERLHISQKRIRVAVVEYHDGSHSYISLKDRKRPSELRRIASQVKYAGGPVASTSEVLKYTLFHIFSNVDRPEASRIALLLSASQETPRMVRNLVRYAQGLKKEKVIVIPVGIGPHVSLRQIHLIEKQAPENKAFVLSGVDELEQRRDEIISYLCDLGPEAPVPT
row,Molecule,Screen Rabbit/No Protein
1,B18,1.88
2,B19,6.04

# Same assay, conditions: DNA SELEX 1 aptamers; 100 nM rabbit vWF A1 domain; ratio of fraction bound with target to without
row,Molecule,Screen- Rabbit/No Protein
1,B1,3.64
2,B2,3.42
3,B3,4.61
4,B4,2.41
5,B5,3.25
6,B6,1.99
7,B7,2.85
8,B8,5.00
9,B9,3.65
10,B10,2.66

# Same assay, conditions: rRfY aptamers; 100 nM rabbit vWF A1 domain; ratio of fraction bound with target to without
row,Molecule,Screen- Rabbit/No Protein
1,B11,3.39
2,B12,5.74
3,B13,2.37
4,B14,1.56
5,B15,4.62
6,B16,2.46
7,B17,2.11

# Test system: full length human vWF
# Assay: 3-point dot blot screen, full length human vWF
# Type: binding
# Conditions: 20 nM full length human vWF, ratio of fraction of aptamer bound with target protein to fraction bound without protein
# How it was run: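 Unique aptamer clones tested twice by nitrocellulose dot blot with no protein, 20 nM full-length human vWF or 20 nM rabbit vWF A1 domain. Value is fraction of aptamer bound with target divided by fraction bound without protein.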
row,Molecule,Screen- Human/No Protein
1,B18,1.66
2,B19,1.12

# Test system: full length human vWF binding to lyophilized platelets
# Assay: Full length human von Willebrand Factor platelet binding assay (FACS)
# Type: cell-based
# Conditions: 5 nM full length human vWF, lyophilized platelets, botrocetin; both bounds in nM
# Experimental: The amount of vWF bound to fixed platelets can be measured with an antibody to vWF. The fluorescence signal from bound antibody incubated with a fluorescein conjugated secondary antibody is then detected and quantified by flow cytometry. The ability of an aptamer of the invention to block vWF binding to platelets is correlated with a reduction in fluorescence signal.
# Aptamer potency to block human vWF binding to lyophilized platelets was assessed by flow cytometric analysis. Titrations of aptamers (0 nM, 0.1 nM to 1000 nM) were pre-incubated briefly with 5 nM of full length human vWF in FACS buffer (PBS plus 0.5% bovine serum albumin) at room temperature in a volume of 50 uL. Another 50 uL containing 5 uL of lyophilized platelets plus 1 uL of 0.1 U/uL of botrocetin in FACS buffer was added to aptamer/vWF. This reaction was allowed to proceed for 15 minutes at 37 degrees C. after which 200 uL of FACS buffer was added. Platelets were collected by a 6 minute spin at 1470 RCF and the supernatant was discarded. The pellets were resuspended in 100 uL of FACS buffer containing a 1:100 dilution of anti-vWF antibody and were incubated at room temperature for 30 minutes. After dilution with 200 uL of FACS buffer, the platelets were spun at 1470 RCF for 6 minutes and the supernatant was discarded. The pellets were resuspended in a 1:100 solution of anti-IgG2a-FITC antibody and were incubated in the dark for 30 minutes at room temperature. The entire 100 uL was diluted into 200 uL of FACS buffer and analyzed immediately by flow cytometric analysis in the FACSCAN. Artifactual data from contaminating debris was eliminated from the analysis by drawing a gate around the population of single and aggregated platelets. Mean fluorescent intensity (“MFI”) readings were quantified for each sample analyzed by flow cytometry. Background MFI was subtracted from all data points. Percent inhibition was reported by calculating the percent value of binding of full length human vWF to platelets in the presence of aptamer at a given concentration relative to binding in the absence of any aptamer (see FIG. 7). IC50 values were determined by fitting the percent inhibition of vWF binding to platelets as a function of aptamer concentration to the equation: % inhibition=% inhibitionmax/(1+IC50/aptamer conc.)
row,Molecule,"Inhibition of full length hVWF binding in FACS assay, IC50 range"
1,B19,no activity

# Target: T1, human vWF A1 domain (SEQ ID NO 5)
# Assay: dot blot KD determination, human vWF A1 domain
# Conditions: DNA 1 minimers; competition dot blot, 10 nM protein
row,Molecule,Human vWF A1 domain KD
1,"CGATCTGACTAGCGGAATGAGAATGCTGGTGGATCG (DNA, backbone not given here) [SEQ ID NO 206]",No binding
2,"GATCTGACTAGCGCAATGAGGATGCdTGATGGATTGCTCAGGTC (GATCTGACTAGCGCAATGAGGATGCDTGATGGATTGCTCAGGTC; DNA, backbone and the base at N not given here) [SEQ ID NO 207]",No binding

# Same assay, conditions: read-out: Human A1 KD; DNA SELEX 1 aptamers; competition dot blot, 100 nM protein, cold competitor titration
row,Molecule,Kd [nM]
1,B1,26
2,B2,30
3,B3,17
4,B4,36
5,B5,34
6,B6,30
7,B7,34
8,B8,22
9,B9,29
10,B10,22

# Same assay, conditions: read-out: human A1 KD; rRfY aptamers; 8 point titration of human vWF A1 domain
row,Molecule,Kd [nM]
1,B11,555
2,B12,1860
3,B13,1060
4,B14,172
5,B15,249
6,B16,189
7,B17,182
